Data taken from patent US20020156245A1 (Genentech, published 2002).
Blank lines part the entries; values can stand above or below the binder they belong to.

Biological target: T1, human Ptch-2 (SEQ ID NO:2) (human, UniProt Q9Y6C5 1-1203)
T1 construct: Its length is printed as 1203 residues in some places and 1204 in others; also called hPtch-2; patched-2
T1 sequence: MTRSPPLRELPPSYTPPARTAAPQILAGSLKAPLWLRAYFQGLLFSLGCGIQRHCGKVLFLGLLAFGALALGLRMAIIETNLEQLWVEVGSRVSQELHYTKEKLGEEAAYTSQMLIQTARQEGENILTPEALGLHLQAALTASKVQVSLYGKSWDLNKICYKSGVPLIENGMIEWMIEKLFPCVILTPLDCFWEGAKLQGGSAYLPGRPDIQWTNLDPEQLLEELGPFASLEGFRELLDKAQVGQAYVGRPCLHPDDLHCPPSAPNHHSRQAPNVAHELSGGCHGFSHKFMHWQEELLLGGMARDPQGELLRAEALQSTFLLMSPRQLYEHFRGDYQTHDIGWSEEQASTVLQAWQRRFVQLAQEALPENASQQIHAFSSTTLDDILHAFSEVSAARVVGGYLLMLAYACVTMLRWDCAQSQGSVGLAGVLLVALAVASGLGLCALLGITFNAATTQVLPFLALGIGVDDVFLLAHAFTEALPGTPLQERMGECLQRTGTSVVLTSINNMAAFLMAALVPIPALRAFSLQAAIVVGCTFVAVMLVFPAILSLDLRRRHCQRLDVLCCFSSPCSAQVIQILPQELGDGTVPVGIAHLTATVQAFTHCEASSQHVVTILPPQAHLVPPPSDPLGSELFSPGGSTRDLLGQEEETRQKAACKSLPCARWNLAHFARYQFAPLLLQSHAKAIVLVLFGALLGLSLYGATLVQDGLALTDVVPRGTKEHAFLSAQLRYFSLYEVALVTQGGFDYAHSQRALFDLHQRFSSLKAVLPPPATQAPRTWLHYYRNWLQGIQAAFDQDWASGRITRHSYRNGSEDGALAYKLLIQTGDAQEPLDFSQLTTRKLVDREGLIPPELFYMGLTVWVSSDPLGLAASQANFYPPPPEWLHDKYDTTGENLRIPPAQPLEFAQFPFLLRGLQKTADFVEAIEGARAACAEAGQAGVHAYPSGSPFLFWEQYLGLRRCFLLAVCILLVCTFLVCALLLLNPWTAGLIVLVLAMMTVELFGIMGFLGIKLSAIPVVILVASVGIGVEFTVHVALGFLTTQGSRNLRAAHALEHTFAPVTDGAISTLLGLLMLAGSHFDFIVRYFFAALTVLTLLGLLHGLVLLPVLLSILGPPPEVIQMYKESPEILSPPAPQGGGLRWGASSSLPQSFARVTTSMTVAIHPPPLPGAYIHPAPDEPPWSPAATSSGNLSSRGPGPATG
Experiment: Scatchard analysis of displacement of 125I-Shh from 293 cells expressing Ptch-2
Description: As shown on FIG. 7A, binding of ¹²⁵I-Shh can be competed with an excess of Shh, Dhh or Ihh (SEQ ID NOS: 14, 13, and 29, respectively).
To determine whether Ptch-2 is able to bind to the various hedgehog ligands, 293 cells were transfected with Ptch (SEQ ID NO:4) or Ptch-2 (SEQ ID NO:2) using standard procedures. Cells were incubated with 100 pM ¹²⁵I-Shh (19 kD amino terminal fragment of murine Shh (SEQ ID NO:14)) in the presence or absence of excess unlabeled Shh (SEQ ID NO:14) or Dhh (SEQ ID NO:13) for 2 h at room temperature. After equilibrium was reached, the ligand bound cells were centrifuged through a continuous sucrose gradient to separate unincorporated and then counted in a scintillation counter. […] Varying concentrations of cold competitor indicate that the 2 ligands have similar affinity for Ptch (SEQ ID NO:4) and Ptch-2 (SEQ ID NO:2).

Kd: 0.6 nM
B1: Dhh (SEQ ID NO:13) (ligand)
chain: not shown
notes: also called Desert Hh; Desert hedgehog

Kd: 0.4 nM
B2: Ihh (SEQ ID NO:29) (ligand)
chain: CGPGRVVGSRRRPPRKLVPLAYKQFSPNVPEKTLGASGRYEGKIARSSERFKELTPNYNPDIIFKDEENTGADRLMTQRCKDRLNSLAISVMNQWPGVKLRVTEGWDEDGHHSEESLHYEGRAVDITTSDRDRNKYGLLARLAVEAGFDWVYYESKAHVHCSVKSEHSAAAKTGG
notes: also called Indian Hh
